Assay [1] has as its target T1, human SIGLEC15 on CHO-S-hSIGLEC15 cells (human, UniProt Q6ZMC9 20-328).
T1 sequence: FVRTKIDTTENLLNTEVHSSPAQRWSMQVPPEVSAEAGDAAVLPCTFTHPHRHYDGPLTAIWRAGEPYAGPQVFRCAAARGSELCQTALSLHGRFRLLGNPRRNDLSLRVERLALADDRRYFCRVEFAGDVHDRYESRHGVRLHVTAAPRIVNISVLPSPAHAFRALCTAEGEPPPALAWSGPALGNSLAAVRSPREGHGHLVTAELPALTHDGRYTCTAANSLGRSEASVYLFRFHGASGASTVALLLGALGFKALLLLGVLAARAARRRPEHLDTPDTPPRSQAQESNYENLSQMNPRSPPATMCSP
As to the kind of experiment: flow cytometry (MFI) on CHO-S-hSIGLEC15 cells; antibody sample: 0 d. As for the experimental part:
(§1) In the activity detection experiment, 30 μL of CHO-S-hSIGLEC15 cells were added to the culture plate, and the antibody to be tested was added in a gradient dilution ([…]), and incubated at 4° C. for 30 min. The plate was washed with PBS, and diluted secondary antibody Anti-hIgG-Fc-Alex Flour 647 (RL1-H) (1:2000) was added, incubated at 4° C. for 30 min. The plate was washed once with PBS and the cells were resuspended for flow cytometry detection. MFI value was derived by FlowJo 7.6.1 analysis to calculate EC50.
A general note: Flow cytometry measures light scatter and fluorescence of single cells or particles in a stream.

The target in assay [2] is T1, human SIGLEC15 on CHO-S-hSIGLEC15 cells. As to the kind of experiment: flow cytometry (MFI) on CHO-S-hSIGLEC15 cells; antibody sample: freeze 10. As for the experimental part:
as §1

For assay [3] the target is unchanged. Briefly: flow cytometry (MFI) on CHO-S-hSIGLEC15 cells; antibody sample: 25° C. 7 d. As for the experimental part:
as §1

The target is the same in assay [4]. As to the kind of experiment: flow cytometry (MFI) on CHO-S-hSIGLEC15 cells; antibody sample: pH 3.5 0 h. As for the experimental part:
as §1

The target is the same in assay [5]. Briefly: flow cytometry (MFI) on CHO-S-hSIGLEC15 cells; antibody sample: 4° C. 7 d. On the procedure:
as §1

The target is the same in assay [6]. Briefly: flow cytometry (MFI) on CHO-S-hSIGLEC15 cells; antibody sample: pH 3.5 6 h. As for the experimental part:
as §1

B1: anti-SIGLEC15 antibody 23F4 (antibody, human IgG1, V domains shown)
VH: QVQLQQWGAGLLKPSETLSLTCAVYGGSFSGYFWSWIRQPPGKGLEWIGEINHSGSTNYNPSLKSRVTLSVDTSKNQFSLKLSSVTAADTAVYYCAREGDSSSWGNWFDPWGQGTLVTVSS
VL: EIVLTQSPGTLSLSPGERATLSCRASQSVSSSYLAWYQQKPGQAPRFLIYGASSRATGIPDRFSGSGSGTDFTLTISRLEPEDFAVYYCQQFGNSPLTFGGGTKVEIK
The term EC50 denotes the concentration that produces a half-maximal response. Lower therefore signals higher potency in that assay. Take B1: the EC50 in assay [1] was found to be 0.129 µg/mL; in assay [2] it was 0.129 µg/mL; in assay [3] it was 0.106 µg/mL; in assay [4], 0.148 µg/mL; in assay [5] it was 0.122 µg/mL; in assay [6], 0.221 µg/mL.

B2: anti-SIGLEC15 antibody 10C9 (antibody, human IgG1, V domains shown)
VH: QVQLVQSGAEVKKPGATVKVSCKASGYTFTNYGFSWVRQAPGQGLEWMGWINTYNDNTNYAQKFQGRVTMTTDTSTSTAYMELRSLRSDDTAVYYCARDGLWFGELPHYFDYWGQGTLVTVSS
VL: DIQLTQSPLSSPVTLGQPASISCRSSQSLVNSDGETFLSWLQQRPGQPPRLLIYKISNRFSGVPDRFSGSGAGTDFTLKISRVEAEDVGVYYCMQATQFPHTFGQGTKLEIK
As for B2, the EC50 was 1.17 µg/mL in assay [1]; 0.81 µg/mL in assay [2]; 0.65 µg/mL in assay [3]; 0.44 µg/mL in assay [4]; 0.85 µg/mL in assay [5]; 0.11 µg/mL in assay [6].
